Measured values published in the supplement of paper PMC12458215.
± gives the uncertainty stated by the source.

Test system: HEK293T
Assay: plasma membrane surface immunostaining intensity (anti-HA, deep receptor scanning) (arbitrary fluorescence units); higher = higher plasma membrane expression

Sequence | plasma membrane surface immunostaining intensity (GPCR class: A (Olfactory)) | other results
MEKLLRLCCWYSWLLLFYYNFQVRGVYSRSQDHPGFQVLASASHYWPLENVDGIHELQDTTGDIVEGKVNKGIYLKEEKGVTLLYYGRYNSSCISKPEQCGPEGVTFSFFWKTQGEQSRPIPSAYGGQVISNGFKVCSSGGRGSVELYTRDNSMTWEASFSPPGPYWTHVLFTWKSKEGLKVYVNGTLSTSDPSGKVSRDYGESNVNLVIGSEQDQAKCYENGAFDEFIIWERALTPDEIAMYFTAAIGKHALLSSTLPSLFMTSTASPVMPTDAYHPIITNLTEERKTFQSPGVILSYLQNVSLSLPSKSLSEQTALNLTKTFLKAVGEILLLPGWIALSEDSAVVLSLIDTIDTVMGHVSSNLHGSTPQVTVEGSSAMAEFSVAKILPKTVNSSHYRFPAHGQSFIQIPHEAFHRHAWSTVVGLLYHSMHYYLNNIWPAHTKIAEAMHHQDCLLFATSHLISLEVSPPPTLSQNLSGSPLITVHLKHRLTRKQHSEATNSSNRVFVYCAFLDFSSGEGVWSNHGCALTRGNLTYSVCRCTHLTNFAILMQVVPLELARGHQVALSSISYVGCSLSVLCLVATLVTFAVLSSVSTIRNQRYHIHANLSFAVLVAQVLLLISFRLEPGTTPCQVMAVLLHYFFLSAFAWMLVEGLHLYSMVIKVFGSEDSKHRYYYGMGWGFPLLICIISLSFAMDSYGTSNNCWLSLASGAIWAFVAPALFVIVVNIGILIAVTRVISQISADNYKIHGDPSAFKLTAKAVAVLLPILGTSWVFGVLAVNGCAVVFQYMFATLNSLQGLFIFLFHCLLNSEVRAAFKHKTKVWSLTSSSARTSNAKPFHSDLMNGTRPGMASTKLSPWDKSSHSAHRVDLSAV [ADGRD1] |  | plasma membrane surface immunostaining intensity (GPCR class: B): 1550 ± 390
MEKWNHTSNDFILLGLLPPNQTGIFLLCLIILIFFLASVGNSAMIHLIHVDPRLHTPMYFLLSQLSLMDLMYISTTVPKMAYNFLSGQKGISFLGCGVQSFFFLTMACSEGLLLTSMAYDRYLAICHSLYYPIRMSKMMCVKMIGGSWTLGSINSLAHTVFALHIPYCRSRAIDHFFCDVPAMLLLACTDTWVYEYMVFVSTSLFLLFPFIGITSSCGRVLFAVYHMHSKEGRKKAFTTISTHLTVVIFYYAPFVYTYLRPRNLRSPAEDKILAVFYTILTPMLNPIIYSLRNKEVLGAMRRVFGIFSFLKE [OR2L13] | 139 ± 4.1 | 
MELAVGNLSEGNASWPEPPAPEPGPLFGIGVENFVTLVVFGLIFALGVLGNSLVITVLARSKPGKPRSTTNLFILNLSIADLAYLLFCIPFQATVYALPTWVLGAFICKFIHYFFTVSMLVSIFTLAAMSVDRYVAIVHSRRSSSLRVSRNALLGVGCIWALSIAMASPVAYHQGLFHPRASNQTFCWEQWPDPRHKKAYVVCTFVFGYLLPLLLICFCYAKVLNHLHKKLKNMSKKSEASKKKTAQTVLVVVVVFGISWLPHHIIHLWAEFGVFPLTPASFLFRITAHCLAYSNSSVNPIIYAFLSENFRKAYKQVFKCHIRKDSHLSDTKESKSRIDTPPSTNCTHV [GALR1] |  | plasma membrane surface immunostaining intensity (GPCR class: A): 6490 ± 69
MELLKLNRSVQGTGPGPGASLCRPGAPLLNSSSVGNLSCEPPRIRGAGTRELELAIRITLYAVIFLMSVGGNMLIIVVLGLSRRLRTVTNAFLLSLAVSDLLLAVACMPFTLLPNLMGTFIFGTVICKAVSYLMGVSVSVSTLSLVAIALERYSAICRPLQARVWQTRSHAARVIVATWLLSGLLMVPYPVYTVVQPVGPRVLQCVHRWPSARVRQTWSVLLLLLLFFIPGVVMAVAYGLISRELYLGLRFDGDSDSDSQSRVRNQGGLPGAVHQNGRCRPETGAVGEDSDGCYVQLPRSRPALELTALTAPGPGSGSRPTQAKLLAKKRVVRMLLVIVVLFFLCWLPVYSANTWRAFDGPGAHRALSGAPISFIHLLSYASACVNPLVYCFMHRRFRQACLETCARCCPRPPRARPRALPDEDPPTPSIASLSRLSYTTISTLGPG [CCKBR] |  | plasma membrane surface immunostaining intensity (GPCR class: A): 2920 ± 830
MELRNSTLGSGFILVGILNDSGSPELLYATFTILYMLALTSNGLLLLAITIEARLHMPMYLLLGQLSLMDLLFTSVVTPKALADFLRRENTISFGGCALQMFLALTMGSAEDLLLAFMAYDRYVAICHPLKYMTLMSPRVCWIMVATSWILASLIAIGHTMYTMHLPFCVSWEIRHLLCEIPPLLKLACADTSRYELIIYVTGVTFLLLPISAIVASYTLVLFTVLRMPSNEGRKKALVTCSSHLIVVGMFYGAATFMYVLPSSFHSPKQDNIISVFYTIVTPALNPLIYSLRNKEVMRALRRVLGKYILLAHSTL [OR2AG2] | 164 ± 69 | 
MELWNFTLGSGFILVGILNDSGSPELLCATITILYLLALISNGLLLLAITMEARLHMPMYLLLGQLSLMDLLFTSVVTPKALADFLRRENTISFGGCALQMFLALTMGGAEDLLLAFMAYDRYVAICHPLTYMTLMSSRACWLMVATSWILASLSALIYTVYTMHYPFCRAQEIRHLLCEIPHLLKVACADTSRYELMVYVMGVTFLIPSLAAILASYTQILLTVLHMPSNEGRKKALVTCSSHLTVVGMFYGAATFMYVLPSSFHSTRQDNIISVFYTIVTPALNPLIYSLRNKEVMRALRRVLGKYMLPAHSTL [OR2AG1] | 135 ± 23 | 
MEMFTFLLTCIFLPLLRGHSLFTCEPITVPRCMKMAYNMTFFPNLMGHYDQSIAAVEMEHFLPLANLECSPNIETFLCKAFVPTCIEQIHVVPPCRKLCEKVYSDCKKLIDTFGIRWPEELECDRLQYCDETVPVTFDPHTEFLGPQKKTEQVQRDIGFWCPRHLKTSGGQGYKFLGIDQCAPPCPNMYFKSDELEFAKSFIGTVSIFCLCATLFTFLTFLIDVRRFRYPERPIIYYSVCYSIVSLMYFIGFLLGDSTACNKADEKLELGDTVVLGSQNKACTVLFMLLYFFTMAGTVWWVILTITWFLAAGRKWSCEAIEQKAVWFHAVAWGTPGFLTVMLLAMNKVEGDNISGVCFVGLYDLDASRYFVLLPLCLCVFVGLSLLLAGIISLNHVRQVIQHDGRNQEKLKKFMIRIGVFSGLYLVPLVTLLGCYVYEQVNRITWEITWVSDHCRQYHIPCPYQAKAKARPELALFMIKYLMTLIVGISAVFWVGSKKTCTEWAGFFKRNRKRDPISESRRVLQESCEFFLKHNSKVKHKKKHYKPSSHKLKVISKSMGTSTGATANHGTSAVAITSHDYLGQETLTEIQTSPETSMREVKADGASTPRLREQDCGEPASPAASISRLSGEQVDGKGQAGSVSESARSEGRISPKSDITDTGLAQSNNLQVPSSSEPSSLKGSTSLLVHPVSGVRKEQGGGCHSDT [FZD6] |  | plasma membrane surface immunostaining intensity (GPCR class: F): 329 ± 75
MENGSYTSYFILLGLFNHTRAHQVLFMMVLSIVLTSLFGNSLMILLIHWDHRLHTPMYFLLSQLSLMDVMLVSTTVPKMAADYLTGSKAISRAGCGAQIFFLPTLGGGECFLLAAMAYDRYAAVCHPLRYPTLMSWQLCLRMNLSCWLLGAADGLLQAVATLSFPYCGAHEIDHFFCETPVLVRLACADTSVFENAMYICCVLMLLVPFSLILSSYGLILAAVLHMRSTEARKKAFATCSSHVAVVGLFYGAAIFTYMRPKSHRSTNHDKVVSAFYTMFTPLLNPLIYSVKNSEVKGALTRCMGRCVALSRE [OR2T8] | 132 ± 16 | 
MENQSSISEFFLRGISAPPEQQQSLFGIFLCMYLVTLTGNLLIILAIGSDLHLHTPMYFFLANLSFVDMGLTSSTVTKMLVNIQTRHHTISYTGCLTQMYFFLMFGDLDSFFLAAMAYDRYVAICHPLCYSTVMRPQVCALMLALCWVLTNIVALTHTFLMARLSFCVTGEIAHFFCDITPVLKLSCSDTHINEMMVFVLGGTVLIVPFLCIVTSYIHIVPAILRVRTRGGVGKAFSTCSSHLCVVCVFYGTLFSAYLCPPSIASEEKDIAAAAMYTIVTPMLNPFIYSLRNKDMKGALKRLFSHRSIVSS [OR1N1] | 119 ± 14 | 
MENVTTMNEFLLLGLTGVQELQPFFFGIFLIIYLINLIGNGSILVMVVLEPQLHSPMYFFLGNLSCLDISYSSVTLPKLLVNLVCSRRAISFLGCITQLHFFHFLGSTEAILLAIMAFDRFVAICNPLRYTVIMNPQVCILLAAAAWLISFFYALMHSVMTAHLSFCGSQKLNHFFYDVKPLLELACSDTLLNQWLLSIVTGSISMGAFFLTLLSCFYVIGFLLFKNRSCRILHKALSTCASHFMVVCLFYGPVGFTYIRPASATSMIQDRIMAIMYSAVTPVLNPLIYTLRNKEVMMALKKIFGRKLFKDWQQHH [OR12D3] | 148 ± 34 | 
MEPAPSAGAELQPPLFANASDAYPSACPSAGANASGPPGARSASSLALAIAITALYSAVCAVGLLGNVLVMFGIVRYTKMKTATNIYIFNLALADALATSTLPFQSAKYLMETWPFGELLCKAVLSIDYYNMFTSIFTLTMMSVDRYIAVCHPVKALDFRTPAKAKLINICIWVLASGVGVPIMVMAVTRPRDGAVVCMLQFPSPSWYWDTVTKICVFLFAFVVPILIITVCYGLMLLRLRSVRLLSGSKEKDRSLRRITRMVLVVVGAFVVCWAPIHIFVIVWTLVDIDRRDPLVVAALHLCIALGYANSSLNPVLYAFLDENFKRCFRQLCRKPCGRPDPSSFSRAREATARERVTACTPSDGPGGGAAA [OPRD1] |  | plasma membrane surface immunostaining intensity (GPCR class: A): 6220 ± 99
MEPEINCSELCDSFPGQELDRRPLHDLCKTTITSSHHSSKTISSLSPVLLGIVWTFLSCGLLLILFFLAFTIHCRKNRIVKMSSPNLNIVTLLGSCLTYSSAYLFGIQDVLVGSSMETLIQTRLSMLCIGTSLVFGPILGKSWRLYKVFTQRVPDKRVIIKDLQLLGLVAALLMADVILLMTWVLTDPIQCLQILSVSMTVTGKDVSCTSTSTHFCASRYSDVWIALIWGCKGLLLLYGAYLAGLTGHVSSPPVNQSLTIMVGVNLLVLAAGLLFVVTRYLHSWPNLVFGLTSGGIFVCTTTINCFIFIPQLKQWKAFEEENQTIRRMAKYFSTPNKSFHTQYGEEENCHPRGEKSSMERLLTEKNAVIESLQEQVNNAKEKIVRLMSAECTYDLPEGAAPPASSPNKDVQAVASVHTLAAAQGPSGHLSDFQNDPGMAARDSQCTSGPSSYAQSLEGPGKDSSFSPGKEEKISDSKDFSDHLDSGCSQKPWTEQSLGPERGDQVPMNPSQSLLPERGGSDPQRQRHLENSEEPPERRSRVSSVIREKLQEVLQDLGLGPEASLSTAPSCHQQTWKNSAAFSPQKMPLSKELGFSPYMVRRRRAAQRARSHFPGSAPSSVGHRANRTVPGAHSRLHVQNGDSPSLAPQTTDSRVRRPSSRKPSLPSDPQDRPGTLEGSKQSQTEPEGARGSKAAFLRQPSGSGRAPSPAAPCLSKASPDLPEQWQLWPPVPSGCASLSSQHSYFDTESSSSDEFFCRCHRPYCEICFQSSSDSSDSGTSDTDPEPTGGLASWEKLWARSKPIVNFKDDLKPTLV [GPR156] |  | plasma membrane surface immunostaining intensity (GPCR class: C): 352 ± 30
MEPEKQTEISEFFLQGLSEKPEHQTLLFTMFLSTYLVTIIGNALIILAIITDSHLHTPMYFFLFNLSLVDTLLSSTTVPKMLANIQAQSRAIPFVGCLTQMYAFHLFGTMDSFLLAVMAIDRFVAIVHPQRYLVLMCSPVCGLLLGASWMITNLQSLIHTCLMAQLTFCAGSEISHFFCDLMPLLKLSGSDTHTNELVIFAFGIVVGTSPFSCILLSYIRIFWTVFKIPSTRGKWKAFSTCGLHLTVVSLSYGTIFAVYLQPTSPSSSQKDKAAALMCGVFIPMLNPFIYSIRNKDMKAALGKLIGKVAVPCPRPEQLLDVYHVPGSLLAARDTEMHPIPYPGGVQSLAGNRDME [OR1I1] | 161 ± 47 | 
MEPLNRTEVSEFFLKGFSGYPALEHLLFPLCSAMYLVTLLGNTAIMAVSVLDIHLHTPVYFFLGNLSTLDICYTPTFVPLMLVHLLSSRKTISFAVCAIQMCLSLSTGSTECLLLAITAYDRYLAICQPLRYHVLMSHRLCVLLMGAAWVLCLLKSVTEMVISMRLPFCGHHVVSHFTCKILAVLKLACGNTSVSEDFLLAGSILLLPVPLAFICLSYLLILATILRVPSAARCCKAFSTCLAHLAVVLLFYGTIIFMYLKPKSKEAHISDEVFTVLYAMVTTMLNPTIYSLRNKEVKEAARKVWGRSRASR [OR13J1] | 140 ± 33 | 
